Experimental data taken from the Immune Epitope Database (IEDB).

Target: HLA-A*03:01
Test: IEDB peptide-MHC binding, purified MHC/competitive/fluorescence; filed as Kd, often an IC50 or EC50 that approximates it; ≥ and ≤ were set here for values at or beyond the usual limits of such assays
Details: source organism: Plasmodium falciparum 3D7

Sequence | Kd
RSKKTFLVK | 0.409 µM
RLNLFCFSFL | 6.12 µM
QVFDYPIEK | 1.57 µM
NLNLCGKYTK | ≥ 1000 µM
FCFSFLKSSK | 9.21 µM
TMANQNMNYK | 0.209 µM
ILISRLTLK | 0.22 µM
TTFFESVSY | ≥ 658 µM
RLNNRSIYK | 0.224 µM
ASFSASTGY | 2.37 µM
KTCKYYCFK | ≥ 116 µM
MDFPKLLNK | 2.08 µM
LTMKMINNK | 0.472 µM
ITNKNKVTIY | 8.72 µM
KNYDNYNMK | 2.51 µM
TMANQNMNY | 0.943 µM
RISGWKGDNK | 0.548 µM
DTFEVYSEY | ≥ 1000 µM
RSSGSTFSIK | 0.326 µM
ALNLFFQNK | 1.14 µM
FTNVNQFFK | 0.921 µM
GLSPHDTMQK | 1.1 µM
STDIIFLTMK | 8.78 µM
SIASKNLMWV | ≥ 1000 µM
FIDPQTEMFK | 8.1 µM

Target: HLA-B*44:02
Test: as above
Details: source organism: Plasmodium falciparum 3D7

Sequence | Kd
TEYFKNKNM | ≥ 31.4 µM
AEISRNDLI | 4.53 µM
RLNLFCFSFL | ≥ 421 µM
SILISRLTL | ≥ 1000 µM
TEMFKLRLNL | ≥ 54.8 µM
SESTSTYNT | ≥ 103 µM
IENNLYERL | ≥ 60.1 µM
NEEIIDLLNL | ≥ 433 µM
ASFSASTGY | ≥ 31.7 µM
SKHPFLKSGF | ≥ 1000 µM
MENEDVEFI | ≥ 36.9 µM
DDTFEVYSEY | ≥ 1000 µM
YESQLGGKI | ≥ 66.3 µM
NENNTTYQY | 18.4 µM
EENLFEWSKT | ≥ 1000 µM
HPFLKSGFTF | ≥ 1000 µM
KEEKEINDEY | ≥ 1000 µM
RLNLFCFSF | ≥ 1000 µM
DENLKAIQI | ≥ 91.3 µM
FDNSGISLL | ≥ 1000 µM

Target: HLA-A*01:01
Test: as above
Details: source organism: Plasmodium falciparum 3D7

Sequence | Kd
CRDKTSALY | ≥ 1000 µM
NSPNVNKRY | ≥ 1000 µM
TTFFESVSY | ≥ 338 µM
ASFSASTGY | ≥ 1000 µM
LISRLTLKY | 11.5 µM
LSSNIENIY | ≥ 29.6 µM
DDTFEVYSEY | ≥ 1000 µM
ITNKNKVTIY | ≥ 1000 µM
NTFDALYYV | ≥ 1000 µM
TMANQNMNY | 2.02 µM
DTFEVYSEY | ≥ 1000 µM
LTHKYNEFV | ≥ 174 µM
SSANDEQSY | ≥ 65 µM
NSDKLDLIY | 0.875 µM
FTNVNQFFK | ≥ 1000 µM
TSKQGSSNKY | ≥ 1000 µM
STDIIFLTMK | ≥ 1000 µM
NNNFRNNMY | ≥ 1000 µM
FIDPQTEMFK | ≥ 46.6 µM
DSDDLKESY | 2.6 µM
FLENFNFPL | ≥ 1000 µM
KEDDTFEVY | ≥ 1000 µM
NTVKCPNDY | ≥ 282 µM

Target: HLA-A*24:02
Test: as above
Details: source organism: Plasmodium falciparum 3D7

Sequence | Kd
LFGDENFSF | 5.87 µM
IWYKYTESDF | 1.12 µM
KYDPRISGW | 5.01 µM
MYHNKEFDF | 4.51 µM
HYNTYKNRVF | 3 µM
PFLKSGFTF | 8.32 µM
NYKQNNFPF | 9.49 µM
TEMFKLRLNL | ≥ 58.2 µM
NYNNDQYNI | 6.54 µM
YYPIIRKQF | 0.101 µM
TYSIYTNFKN | ≥ 26.6 µM
EWLKTCKYYC | ≥ 578 µM
NMNYKQNNF | 14.7 µM
IYGKGGFQF | 0.163 µM
SHPKYRNFKF | 16.6 µM
KMKSDQYPI | 6.9 µM
YGKGGFQFVF | 0.231 µM
HYGINPVQL | 6.79 µM
SLTHKYNEF | 12.6 µM
HPFLKSGFTF | 10.5 µM
YTIGLPPYI | 6.57 µM
KLPPLLNEI | 0.0887 µM
RLNLFCFSF | 11 µM

Target: HLA-A*02:01
Test: as above
Details: source organism: Plasmodium falciparum 3D7

Sequence | Kd
SLTHKYNEFV | ≥ 182 µM
RLNLFCFSFL | ≥ 161 µM
FLLNLLNEHV | 1.68 µM
ILYKNIDCV | 1.4 µM
NLFEWSKTV | 1.62 µM
NTFDALYYV | 8.76 µM
NLFFQNKSI | ≥ 1000 µM
SMTNIPMNV | 0.244 µM
WLNNDIYNV | 0.16 µM
KMKSDQYPI | 3.07 µM
KLYSINSKSI | ≥ 57.7 µM
LTHKYNEFV | 2.41 µM
VIHYGINPV | 1.7 µM
SISDYTKSL | ≥ 352 µM
NMYQQNIPL | ≥ 331 µM
LISTDIIFL | 0.614 µM
YITNKNKVTI | ≥ 1000 µM
YTIGLPPYI | 2.46 µM
GIANDLSTL | 5.73 µM
LLFQKAANL | 1.88 µM
KLPPLLNEI | 2.66 µM
SIASKNLMWV | ≥ 284 µM
FLENFNFPL | 3.68 µM
FDNSGISLL | ≥ 229 µM

Target: HLA-B*07:02
Test: as above
Details: source organism: Plasmodium falciparum 3D7

Sequence | Kd
RNIISKHTSV | ≥ 505 µM
IPPQVFDYPI | ≥ 245 µM
TEMFKLRLNL | ≥ 1000 µM
YPIEKLGHV | 0.257 µM
LPIEPKKLA | ≥ 561 µM
LLNSDRRDL | 0.2 µM
NPVQLKSKF | ≥ 59.6 µM
FPKLLNKPSL | ≥ 73.1 µM
HPMPINIKL | 0.168 µM
FPPNTFDAL | 2.72 µM
KLYSINSKSI | ≥ 225 µM
HPKYRNFKF | 0.336 µM
SPHDTMQKDD | ≥ 1000 µM
HPFLKSGFTF | 0.226 µM
SIASKNLMWV | ≥ 1000 µM
KPNFWRFQDY | ≥ 1000 µM
TIYGKGGFQF | ≥ 109 µM
